# Experimental data from the Human Domainome abundance scans (Beltran et al. 2025).
# ± gives the uncertainty stated by the source.
# B1: Far upstream element-binding protein 1, residues 98 to 169; numbered along this chain, Q96AE4 (parent)
# chain: RSVMTEEYKVPDGMVGFIIGRGGEQISRIQQESGCKIQIAPDSGGLPERSCMLTGTPESVQSAKRLLDQIVE
# Variants of: B1
# Test: abundance fitness (aPCA) (normalised: wild type 0, dead -1); higher = more abundant; growth selection in yeast, the domain comes from the species named
# Conditions: Homo sapiens
row,Variant,abundance fitness
1,RSVMTEEYKVPDGMVGFIIGRGGEQISRIQQESGCKIQIAPDSGGLPERSCMLTGTPYSVQSAKRLLDQIVE [E58Y],-0.05 ± 0.043
2,RSVMTEEYKVPDGMVGFIIGRGGEQISRIQQESGCKIQIAPDSGGLPERSCMLTGTPQSVQSAKRLLDQIVE [E58Q],0.001 ± 0.036
3,RSVMTEEYKVPDGMVGFIIGRGGEQISRIQQESGCKIQIAPDSGGLPERSCMLTGTPESDQSAKRLLDQIVE [V60D],-0.768 ± 0.06
4,RSVMTEEYKVPDGMVGFIIGRGGEQISRIQQESGCKIQIAPDSGGLGERSCMLTGTPESVQSAKRLLDQIVE [P47G],-0.019 ± 0.027
5,RSVMTEEYKVPDGMVGFIIGRGGEQISRIQQESGCKIQIAPDSGGLEERSCMLTGTPESVQSAKRLLDQIVE [P47E],-0.025 ± 0.036
6,RSVMTEEYKVPDGDVGFIIGRGGEQISRIQQESGCKIQIAPDSGGLPERSCMLTGTPESVQSAKRLLDQIVE [M14D],-0.082 ± 0.037
7,RSVMTEEYKVPDGMVGFIIGRGGEQISRIQQESGCKIQIAPDSGGLPERSCMLTGTPESVQSAKRLLDQIVS [E72S],0.012 ± 0.035
8,RSVMTEEYKVPDGMVGFIIGRGGEQISRIQQESGCKIQIAPDSGGLPERSCMLTGTPESVQSAKRLLDQIVG [E72G],0.024 ± 0.029
9,RSVPTEEYKVPDGMVGFIIGRGGEQISRIQQESGCKIQIAPDSGGLPERSCMLTGTPESVQSAKRLLDQIVE [M4P],-0.245 ± 0.032
10,RSVGTEEYKVPDGMVGFIIGRGGEQISRIQQESGCKIQIAPDSGGLPERSCMLTGTPESVQSAKRLLDQIVE [M4G],-0.133 ± 0.023
11,RSVMTEEYKVPDGMVGFIIGRGGEQISRIQQESGCKIQIAPDSGGLPERSCMLTVTPESVQSAKRLLDQIVE [G55V],-1.31 ± 0.077
12,RSVMTEEYKVPDGMVGFIIGRGGEQISRIQQESGCKIQIAPDSGGLPERSCMLTFTPESVQSAKRLLDQIVE [G55F],-1.41 ± 0.21
13,RSVMTEEYKVPDGMVGFIIGRGGEQISRIQQESGCKIQIAPDSGGLPERSCMLTKTPESVQSAKRLLDQIVE [G55K],-1.05 ± 0.087
14,RSVMTEEYKVPDGMVGFIIGRGGEQISRIQQESGCKIQIAPDSGGLPEESCMLTGTPESVQSAKRLLDQIVE [R49E],-0.188 ± 0.033
15,RSVMTEEYKVPDGMVGFIIGRGGEQISRIQQESGCKIQIAPDSGGLPERSCMLTGTPESVQSAKRLQDQIVE [L67Q],-0.575 ± 0.045
16,RSVMTEEYKVPDGMVGFIIGRGGEQISRIQQESGCKIQIAPDSGGLPERSCCLTGTPESVQSAKRLLDQIVE [M52C],-0.004 ± 0.043
17,RSVMTEEYKVPDGMVGFIIGRGGEQISRIQQESGCKIQIAPDSGGLPERSCVLTGTPESVQSAKRLLDQIVE [M52V],0 ± 0.027
18,RSVMTEEPKVPDGMVGFIIGRGGEQISRIQQESGCKIQIAPDSGGLPERSCMLTGTPESVQSAKRLLDQIVE [Y8P],-0.798 ± 0.053
19,RSVMTEEYKVPDGMVQFIIGRGGEQISRIQQESGCKIQIAPDSGGLPERSCMLTGTPESVQSAKRLLDQIVE [G16Q],-0.029 ± 0.033

row,Variant,abundance fitness
1,RSVMTEEYKVPDGMVGFIIGRGGEQISSIQQESGCKIQIAPDSGGLPERSCMLTGTPESVQSAKRLLDQIVE [R28S],-0.045 ± 0.029
2,RSVMTEEYKVPDGMVGFIIGRGGEQISRIQQESGCKIQIAPDSGGLPERSQMLTGTPESVQSAKRLLDQIVE [C51Q],-0.818 ± 0.068
3,RSVMTEEYKVPDGMVGFIIGRGGEQISRIQQESGCKIQIAPDSGGLPERSWMLTGTPESVQSAKRLLDQIVE [C51W],-0.108 ± 0.03
4,RSVMTEEYKVPDGMVGFIIGRGGEQISRIQQESGCKIQIAPDSGGLPERSFMLTGTPESVQSAKRLLDQIVE [C51F],0.049 ± 0.053
5,RSVMTEEYKVPDGMVGFIIGRGGEQISRIQQESGCKIQIAPDSGGLPERSDMLTGTPESVQSAKRLLDQIVE [C51D],-0.956 ± 0.082
6,RSVMTEEYKVPDGMVGFIRGRGGEQISRIQQESGCKIQIAPDSGGLPERSCMLTGTPESVQSAKRLLDQIVE [I19R],-0.038 ± 0.023
7,RSVMTEEYYVPDGMVGFIIGRGGEQISRIQQESGCKIQIAPDSGGLPERSCMLTGTPESVQSAKRLLDQIVE [K9Y],-0.084 ± 0.037
8,RSVMTEEYKVPDGMVGFIIGRGGEQISRIQQESGCKIQIAPDSGGLPERSCMLTGTPESVQSAKTLLDQIVE [R65T],-0.019 ± 0.032
9,RSVMTEEYKVPDGMVGFIIGRGGEQISRIQQESGCGIQIAPDSGGLPERSCMLTGTPESVQSAKRLLDQIVE [K36G],-0.058 ± 0.024
10,RSVMTEEYKVPDGMVGFIIGRGGEQISRIQGESGCKIQIAPDSGGLPERSCMLTGTPESVQSAKRLLDQIVE [Q31G],-0.089 ± 0.026
11,RSVMTEEYKVPDGMVGFIIGRGGEQISRDQQESGCKIQIAPDSGGLPERSCMLTGTPESVQSAKRLLDQIVE [I29D],-0.935 ± 0.083
12,RSVMTKEYKVPDGMVGFIIGRGGEQISRIQQESGCKIQIAPDSGGLPERSCMLTGTPESVQSAKRLLDQIVE [E6K],-0.01 ± 0.032
13,RSVMTEEYKVPDGMVGFIIGRGGEQISRIQQESGCKIQIAPDSGGLPERSCMLTGTPESVQHAKRLLDQIVE [S62H],-0.01 ± 0.038
14,RSVMTEEYKVPDGMVGFIIGRGGEQISRIQQESGCKIQIAPDSGGLPERSCMLTGTPESVQRAKRLLDQIVE [S62R],-0.017 ± 0.023
15,RSVMTEEYKVPDGMVGFIIGRGGEQISRIQQESGCKIQIAPDSGGLPERSCMLTGTPESVQWAKRLLDQIVE [S62W],-0.059 ± 0.029
16,RSVMTEEYKVPDGMVGFIIGEGGEQISRIQQESGCKIQIAPDSGGLPERSCMLTGTPESVQSAKRLLDQIVE [R21E],-0.251 ± 0.28
17,RSVMTEEYKVPDGMVGFIIGRGGEQISRIQQESGCKIQIAPDSGGLPERSCMLTGTPERVQSAKRLLDQIVE [S59R],-0.064 ± 0.024
18,RSVMTEEYKVPDGMVGFIIGRGGEQISRIQQESGCKIQIAPDSGGLPERSCMLTGTPEIVQSAKRLLDQIVE [S59I],-0.252 ± 0.051
19,RSVMTEEYKVPDGMVGFIIGRGGEQISRIQQESGCKIQIAYDSGGLPERSCMLTGTPESVQSAKRLLDQIVE [P41Y],-0.16 ± 0.051
